{"source": "patent US20070009442A1", "about": "“Macrocyclic metal complexes and their use for the production of conjugates with biomolecules” (priority 2001, published 2007)", "key": {"[1]": {"assay": "Relaxivity of the conjugates in plasma", "type": "physicochemical", "conditions": "+37° C., 20 MHz, relaxivity per mol of gadolinium calculated from the measured values", "protocol": "(§1) As comparison substances, Gd-DTPA (1) with the formula: [drawing 16] and Gd-GlyMeDOTA (2) with the formula: [drawing 17] which were reacted in each case with bovine serum albumin (BSA), were used.\n(§2) The measurements were made in each case in aqueous solution and in plasma at +37° C. and a frequency of 20 MHz. The results are summarized in Table 2 below, whereby the indicated relaxivities per mol of gadolinium were calculated from the measured values: […]"}, "[2]": {"assay": "Relaxivity of the conjugates in aqueous solution", "type": "physicochemical", "conditions": "+37° C., 20 MHz, relaxivity per mol of gadolinium calculated from the measured values", "protocol": "as §1, §2"}}, "data": [{"substance": "Gd-GlyMeDOTA [Vergleichssubstanz 2]", "values": [{"measurement": "R1 (Plasma)", "setting": "[1]", "value": 20.8, "unit": "L/mmol/s"}, {"measurement": "R1 (H2O)", "setting": "[2]", "value": 18.3, "unit": "L/mmol/s"}]}]}
